Measurements from US20160009772A1, “CELL PENETRATING PEPTIDES WHICH BIND IRF5” (priority 2012, published 2016).

B1: Ac-…-NH2 (SEQ ID NO: 14) (peptide)
peptide: Ac-MIILIISFPKHKDWKVILVK-NH2
B2: FITC-Aha-…-NH2 (SEQ ID NO: 16) (peptide)
peptide: XIRLQISNPYLKFIPLKRAIWLIK
modifications: N-terminal FITC-Aha (fluorescein isothiocyanate on amino hexanoic acid), C-terminal amide (NH2)
B3: FITC-Aha-…-NH2 (SEQ ID NO: 17) (peptide)
peptide: XMIILIISFPKHKDWKVILVK
modifications: N-terminal FITC-Aha (fluorescein isothiocyanate on amino hexanoic acid), C-terminal amide (NH2)
B4: Ac-…-NH2 (SEQ ID NO: 23), control CPP designed not to bind IRF5 (peptide)
peptide: Ac-YLKFIPLKRAIWLIK-NH2
B5: Ac-…-NH2 (SEQ ID NO: 8) (peptide)
peptide: Ac-KDLMVQWFKDGGPSSGAPPPS-NH2
B6: Ac-…-NH2 (SEQ ID NO: 9) (peptide)
peptide: Ac-IRLQISNPDLKDLMVQWFKDGGPSSGAPPPS-NH2
B7: Ac-…-NH2 (SEQ ID NO: 10) (peptide)
peptide: Ac-PFPPLPIGEEAPKDDMVRFFKDLHQYLNVV-NH2

Target: Wild type IRF5 (222-467) (human) (UniProt Q13568)
Assay: TR-FRET IRF5 dimerization inhibition, WT (222-467), peptide titrated

Q: For B1, which IC50 is on record?
A: Its IC50 is 18600 nM.

Q: How did the IC50 turn out when B2 was run?
A: The IC50 was 46500 nM.

Q: Which IC50 does the source give for B3 here?
A: Its IC50 is 5300 nM.

Q: With B4 as the binder, how does the IC50 read?
A: Its IC50 is greater than 75000 nM.

Q: Which IC50 does the source give for B5 here?
A: The IC50 was 790 nM.

Q: Which IC50 does the source give for B6 here?
A: The IC50 was 1400 nM.

Q: B7 was tested. Which IC50 did it give?
A: Its IC50 is 350 nM.

Target: IRF5(222-467, S430D), S430D phosphomimetic construct of IRF5 (222-467) (human), Q13568
Assay: not given

Sequence of IRF5(222-467, S430D), S430D phosphomimetic construct of IRF5 (222-467) (human), Q13568 (Q13568 232-477 S440D limits assumed): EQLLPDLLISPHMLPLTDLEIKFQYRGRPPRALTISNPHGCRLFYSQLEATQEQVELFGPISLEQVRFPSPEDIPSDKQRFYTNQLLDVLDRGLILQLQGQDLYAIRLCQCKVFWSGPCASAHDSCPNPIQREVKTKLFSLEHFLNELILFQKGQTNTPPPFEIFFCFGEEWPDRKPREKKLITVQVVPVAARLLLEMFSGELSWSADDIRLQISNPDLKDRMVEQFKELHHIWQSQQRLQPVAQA

Q: B5 was tested. Which IC50 did it give?
A: The IC50 was 1680 nM.
